Molecular target: T1, Escherichia coli HSP70 family member DnaK (Escherichia coli, UniProt P0A6Y8)
T1 construct: purchased Stressgen (Ann Arbor, Mich., USA) SPP-630
Assay: ELISA: binding of DnaK to immobilized (misfolded) protein ligands
Description: Recombinant Escherichia coli (E. coli) DnaK was purchased from Stressgen (Ann Arbor, Mich., USA; SPP-630). For the binding studies first lot B502468 (100 μg, lot A) and then lot 05240609 (200 μg, lot B) was used.
Binding of chaperones to immobilized (misfolded) protein ligands was determined using an enzyme linked immuno sorbent assay (ELISA) approach. For this purpose 50 μl/well of potential ligands at indicated concentrations or coat buffer only for control and background measurement purposes, were coated overnight at 4° C. or coated for 1 h at room temperature, with motion, in 50 mM NaHCO3 pH 9.6 (coat buffer). In general, ligands were coated at 5 μg/ml, unless stated otherwise. For example, BiP binding peptides 6BB# and oxLDL were coated at 50 μg/ml. Native haemoglobin (Sigma-Aldrich, H7379), albumin, IgIV Gammagard and ovalbumin controls were prepared from lyophilized stocks. The controls were prepared by dissolving lyophilized proteins at 1 mg/ml in PBS upon resuspending by pipetting, followed by a 30 minutes period at the roller device, at room temperature. The protein solutions were centrifuged for 10 minutes at 16,000*g and diluted in coat buffer. After coating the plates were washed at least three times with 50 mM Tris-HCl pH 7.3, 150 mM NaCl, 0.1% v/v Tween20, and blocked with Blocking reagent (Roche Diagnostics, Almere, The Netherlands; 11112589001), for 1 h at room temperature, with motion. Plates were washed three times and incubated in triplicate with indicated chaperone dilution series, at 50 μl/well, for 1 h at room temperature, with constant motion. For HSP90, 5 mM DTT is incorporated in the binding buffer (PBS/0.1% Tween20) to avoid unwanted disulfide bond formation of the HSP90. Plates were washed three times and incubated with anti-FLAG antibody (mouse antibody, M2, peroxidase conjugate; Sigma, A-8592) for BiP-FLAG-His, anti-His-tag antibody (Mouse Monoclonal Antibody, Cat. No. 70796, Novagen [0.2 mg/ml]) for HSP60, a 1:1 mix of 500-fold diluted anti-HSP90beta antibodies (Stressgen, SPA-643 [mouse monoclonal IgM], SPA-646 [rabbit polyclonal]) for HSP90 and an anti-DnaK antibody (Stressgen, 023SPA-880D [mouse monoclonal antibody]) for DnaK. After four wash cycles, secondary antibodies were added to the wells when required, 50 μl/well, for 45′ at room temperature, with motion. RAMPO and SWARPO were used at 3000 times dilution. […] In a second experiment with more immobilized misfolded proteins and controls, the detection of bound HSP90 with the mix of two anti-HSP90 antibodies was achieved by mixing 1:1500 SWARPO with 1:3000 RAMPO. After 5 washes with wash buffer followed by two washes with PBS, binding of antibodies was assessed. Bound anti-FLAG-PO, peroxidase-conjugated rabbit anti-mouse immunoglobulins (RAMPO, P0260, DAKOCytomation, Glostrup, Denmark) or peroxidase-coupled swine anti-rabbit immunoglobulins (SWARPO, P0217, DAKOCytomation) was visualized with tetramethylbenzidine (TMB, #45.01.20,/#45.014.01, Biosource, Nivelles, Belgium). The reaction was stopped after 5 minutes with 1% H2SO4 in H2O. Plates were read at 450 nm. Triplicates were averaged and standard deviations calculated. Background signals obtained with buffer-coated wells were subtracted (binding of primary antibody to empty wells), as well as background signals obtained with ligand-coated wells in which the chaperones were omitted (binding of primary and secondary antibody to coated ligands). Subsequently, sub-optimal concentrations of chaperones for binding to misfolded protein ligands are determined, and these concentrations are used for inhibition studies. […] We have previously identified that a sub-fraction of IgIV molecules has affinity for misfolded proteins comprising crossbeta structure (pending patent application). Moreover, we identified that the sub-fraction of IgIV molecules directly binds to crossbeta structure and/or crossbeta structure induced conformation (not shown; pending patent application). […]

T1 sequence (P0A6Y8 whole entry): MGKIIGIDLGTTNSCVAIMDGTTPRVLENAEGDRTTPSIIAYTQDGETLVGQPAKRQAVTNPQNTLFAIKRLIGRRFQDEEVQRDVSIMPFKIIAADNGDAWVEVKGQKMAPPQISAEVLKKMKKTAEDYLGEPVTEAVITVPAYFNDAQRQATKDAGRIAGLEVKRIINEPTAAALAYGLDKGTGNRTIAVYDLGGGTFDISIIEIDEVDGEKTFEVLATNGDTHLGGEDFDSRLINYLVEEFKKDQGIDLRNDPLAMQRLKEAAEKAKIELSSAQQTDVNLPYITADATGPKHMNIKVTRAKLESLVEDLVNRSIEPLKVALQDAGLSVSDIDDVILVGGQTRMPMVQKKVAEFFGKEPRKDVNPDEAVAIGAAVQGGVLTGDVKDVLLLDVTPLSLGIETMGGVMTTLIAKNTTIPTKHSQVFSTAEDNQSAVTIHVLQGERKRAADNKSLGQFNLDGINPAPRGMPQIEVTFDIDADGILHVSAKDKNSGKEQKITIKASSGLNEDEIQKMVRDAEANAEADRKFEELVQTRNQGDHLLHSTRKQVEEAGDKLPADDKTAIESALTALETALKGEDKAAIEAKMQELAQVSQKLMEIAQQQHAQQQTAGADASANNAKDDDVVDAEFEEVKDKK

Row | Substance | Binding of concentration series of DnaK to coated ligand
1 | AGEYYAAL [6BB7] | No binding
2 | BSA-AGE | has been established
3 | GSNKGAIIGLM [6BB6, Human Aβ (25-35)] | has been established
4 | Hb: non-modified human haemoglobin control | Low binding
5 | HbAGE: human haemoglobin glycated with glucose-6-phosphate for 75 weeks | has been established
6 | KLVFFAE [6BB12, Human Aβ16-22] | did not bind
7 | native BSA: non-modified bovine serum albumin control | No binding
